Consider 1 molecule from US20180362665A1.

The target of test [1] is human ADAMTS13 (in normal human plasma) (human) (UniProt Q76LX8). Description: cell-based or functional assay.
Test [2] has the same target. In words: sandwich ELISA, antibody coated 10 to 0.02 µg/mL, constant 15% NHP, detection with biotinylated 17G2 and 19H4. (In general: In an ELISA, binding on a coated surface is turned into a signal by an enzyme label.)

Chain of human ADAMTS13 (in normal human plasma) (human) (Q76LX8 75-1427): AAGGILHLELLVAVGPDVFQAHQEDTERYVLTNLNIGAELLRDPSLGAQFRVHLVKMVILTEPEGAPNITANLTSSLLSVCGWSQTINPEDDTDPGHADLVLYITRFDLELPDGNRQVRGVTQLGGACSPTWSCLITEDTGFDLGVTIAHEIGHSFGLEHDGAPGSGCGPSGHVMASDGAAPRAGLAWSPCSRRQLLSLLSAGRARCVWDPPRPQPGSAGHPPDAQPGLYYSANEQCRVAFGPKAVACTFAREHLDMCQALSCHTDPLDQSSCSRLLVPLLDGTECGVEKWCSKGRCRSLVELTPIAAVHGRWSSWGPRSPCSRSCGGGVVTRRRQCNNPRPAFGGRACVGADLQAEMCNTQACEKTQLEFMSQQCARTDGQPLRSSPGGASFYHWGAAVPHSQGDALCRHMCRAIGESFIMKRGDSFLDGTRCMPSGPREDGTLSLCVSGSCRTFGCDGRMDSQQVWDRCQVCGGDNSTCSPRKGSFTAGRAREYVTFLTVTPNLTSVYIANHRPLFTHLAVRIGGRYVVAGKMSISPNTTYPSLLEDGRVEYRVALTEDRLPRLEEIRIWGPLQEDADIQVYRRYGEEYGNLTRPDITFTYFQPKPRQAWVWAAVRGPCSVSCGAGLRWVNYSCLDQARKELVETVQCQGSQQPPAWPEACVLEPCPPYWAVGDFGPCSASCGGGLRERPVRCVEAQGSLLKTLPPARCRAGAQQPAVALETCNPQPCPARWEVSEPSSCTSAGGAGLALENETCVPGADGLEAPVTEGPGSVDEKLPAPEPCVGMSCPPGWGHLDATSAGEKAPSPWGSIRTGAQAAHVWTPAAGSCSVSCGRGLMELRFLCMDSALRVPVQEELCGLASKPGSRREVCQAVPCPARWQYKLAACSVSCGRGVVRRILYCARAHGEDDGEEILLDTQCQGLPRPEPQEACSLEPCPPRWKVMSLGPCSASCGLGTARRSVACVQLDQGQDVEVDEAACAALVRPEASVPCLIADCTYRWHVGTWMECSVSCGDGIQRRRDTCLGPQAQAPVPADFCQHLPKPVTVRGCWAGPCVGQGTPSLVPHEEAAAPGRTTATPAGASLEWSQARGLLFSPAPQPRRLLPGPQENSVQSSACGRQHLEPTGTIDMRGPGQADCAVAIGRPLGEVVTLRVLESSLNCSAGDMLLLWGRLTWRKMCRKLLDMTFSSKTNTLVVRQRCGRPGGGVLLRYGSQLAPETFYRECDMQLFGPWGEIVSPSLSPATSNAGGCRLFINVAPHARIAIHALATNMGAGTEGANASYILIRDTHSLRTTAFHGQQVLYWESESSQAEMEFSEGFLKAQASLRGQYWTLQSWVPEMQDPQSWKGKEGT

B1: anti-ADAMTS13 monoclonal antibody 17C7 (antibody, V domains shown)
VH: EVQLVESGGDLVKSGGSLKLSCAASGFIFSNYAMSWVRQTPEKRLEWGATITTGGFYTFYSDSVKGRFTISRDNAKNTLYLQMSSLRSEDTAMYYCARHRYDDYYALDYWGQGTSVTVSS
VL: ENVLTQSPAIMSTSPGEKVTMTCNVSSSVSYMRWFQQKSSTSPKLWIYDTSKLASGVPGRFSGSGSGHSYSLTISSMEADDVATYYCFQGNGYPLTFGAGTKLELK
As for B1, the half maximal inhibitory concentration (IC50) of ADAMTS13 activity in normal human plasma, FRETS-VWF73 assay in test [1] amounted to 0.47 µg/mL. Further, in test [2], the half maximal binding (Kd) was found to be 0.51 µg/mL.
